According to paper PMC8617651, “Cloning, Expression and Characterization of UDP-Glucose Dehydrogenases” (Life, 2021):

Key:
Assay in all cases: UDP-GlcA formation by UHPLC, Michaelis-Menten fit, crude extract
Settings in all cases: 0.5 mM NAD+, 50 mM Tris-HCl pH 8.0, 30 °C, 0.5 g/L extract protein, 1-5 mM UDP-Glc
[1] = substrate: O=c1ccn([C@@H]2O[C@H](CO[P@@](=O)(O)O[P@@](=O)(O)O[C@H]3O[C@H](CO)[C@@H](O)[C@H](O)[C@H]3O)[C@@H](O)[C@H]2O)c(=O)[nH]1; format: biochemical, Zymomonas mobilis
Excerpt: (§1) UDP-GlcA formation by UHPLC, Michaelis-Menten fit, crude extract on ZmUGD

[2] = substrate: O=c1ccn([C@@H]2O[C@H](CO[P@@](=O)(O)O[P@@](=O)(O)O[C@H]3O[C@H](CO)[C@@H](O)[C@H](O)[C@H]3O)[C@@H](O)[C@H]2O)c(=O)[nH]1; format: biochemical, Zymomonas mobilis; remark: listed apart in the source
Excerpt: as §1

[3] = substrate: O=c1ccn([C@@H]2O[C@H](CO[P@@](=O)(O)O[P@@](=O)(O)O[C@H]3O[C@H](CO)[C@@H](O)[C@H](O)[C@H]3O)[C@@H](O)[C@H]2O)c(=O)[nH]1; format: biochemical, Capra hircus
Excerpt: UDP-GlcA formation by UHPLC, Michaelis-Menten fit, crude extract on ChUGD

| Protein | Km [1] [µM] | Km [2] [µM] | Km [3] [µM] |
| --- | --- | --- | --- |
| ZmUGD (Zymomonas mobilis) (protein, N-terminal 6xHis tag (pRSFDuet-1), expressed in E. coli BL21 (DE3), crude soluble cell extract (host has a predicted own UGD)) MRITMIGSGYVGLVSGACFSDFGHNVICVDHDQEKIALLQKGVMPIYEPGLADMVANNVKAGRLSFSNDLASSVKDADAVFIAVGTPSRRGDGHADLSYVFAAAKEIAASVSDNTVVVDKSTVPVGTGDEVERIIREIAPDKKIWVASNPEFLREGAAIGDFKRPDRIVIGTENPEAREIMQEIYRPLYLNQSPILFTSRRSAELIKYASNAFLATKITFINEMADLCEAVGGDVQDVARGIGADNRIGSKFLHAGPGYGGSCFPKDTLALLKTAENFATPLRVVESVVTANNIRKRAMARKVLQAIGKDMRGQKIGLLGLTFKPNTDDMRDAPSLALIQGLEDAGAIIHAYDPEGMTQARPLLPNVVFEDEPYKVAEKAEALVIVTEWDAFRALDLKRIAGLLKTPLLLDLRNIYTEEEAKKAGLVYHGIGRPHAG | 1234 | 2586 |  |
| ChUGD (Capra hircus) (protein, codon-optimized synthetic gene, N-terminal 6xHis tag, expressed in S. cerevisiae, crude soluble cell extract) MFEIKKICCIGAGYVGGPTCSVIAHMCPEIRVTVVDINESRINAWNSPTLPIYEPGLKEVVESCRGKNLFFSTNIDDAIKEADLVFISVNTPTKTYGMGKGRAADLKYIEACARRIVQNSHGYKIVTEKSTVPVRAAESIRRIFDANTKPNLNLQVLSNPEFLAEGTAIKDLKNPDRVLIGGDETPEGQRAVQALCAVYEHWVPREKILTTNTWSSELSKLTANAFLAQRISSINSISALCEATGADVEEVATAIGMDQRIGSKFLKASVGFGGSCFQKDVLNLVYLCEALNLPEVARYWQQVIDMNDYQRRRFASRIIDSLFNTVTDKKIAILGFAFKKDTGDTRESSSIYISKYLMDEGAHLHIYDPKVPREQIVVDLSHPGVSKDDQVARLVTISKDPYEACDGAHAVVICTEWDMFKELDYERIHKKMLKPAFIFDGRRVLDGLHNELQTIGFQIETIGKKVSSKRIPYAPSGEIPKFSLQDMPNKKPRV |  |  | 841 |
